# Measurements from patent US20250381244A1.
# Target: Neuropilin-2 (human NRP-2), endogenous on U87MG, Jurkat and HUVEC cells (human) (UniProt O60462)
# Assay: cell-based or functional assay
# Chain of Neuropilin-2 (human NRP-2), endogenous on U87MG, Jurkat and HUVEC cells (human) (O60462 21-931 limits assumed): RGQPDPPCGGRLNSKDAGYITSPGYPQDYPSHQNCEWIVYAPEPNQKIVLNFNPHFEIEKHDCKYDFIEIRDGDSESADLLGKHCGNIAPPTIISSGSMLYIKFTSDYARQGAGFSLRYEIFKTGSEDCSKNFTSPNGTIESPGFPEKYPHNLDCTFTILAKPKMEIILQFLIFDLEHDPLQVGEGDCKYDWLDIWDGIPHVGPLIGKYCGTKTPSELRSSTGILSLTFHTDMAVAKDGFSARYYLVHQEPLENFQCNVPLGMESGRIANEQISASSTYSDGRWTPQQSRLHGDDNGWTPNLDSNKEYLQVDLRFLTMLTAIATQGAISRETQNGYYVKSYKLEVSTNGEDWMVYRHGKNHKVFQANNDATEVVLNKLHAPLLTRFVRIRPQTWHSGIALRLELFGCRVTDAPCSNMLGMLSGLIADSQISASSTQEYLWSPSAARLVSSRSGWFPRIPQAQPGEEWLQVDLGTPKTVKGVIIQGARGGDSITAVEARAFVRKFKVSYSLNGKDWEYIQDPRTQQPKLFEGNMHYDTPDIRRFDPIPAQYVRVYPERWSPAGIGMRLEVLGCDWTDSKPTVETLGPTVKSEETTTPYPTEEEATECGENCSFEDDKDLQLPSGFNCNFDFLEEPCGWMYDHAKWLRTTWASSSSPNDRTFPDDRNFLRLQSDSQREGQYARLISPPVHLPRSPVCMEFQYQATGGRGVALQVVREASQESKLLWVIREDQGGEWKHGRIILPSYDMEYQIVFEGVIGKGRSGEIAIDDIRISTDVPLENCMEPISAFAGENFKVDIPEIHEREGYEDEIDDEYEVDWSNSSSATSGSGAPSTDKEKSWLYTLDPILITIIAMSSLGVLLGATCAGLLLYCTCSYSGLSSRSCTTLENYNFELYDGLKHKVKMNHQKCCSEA
substance,measurement,value
"Human recombinant SEMA3F (full-length, His-Myc-tagged human SEMA3F, secreted by 293T cells and purified) (from UniProt Q13275 20-785) (ligand)","inhibition of DFO-induced VEGF promoter luciferase activity, U87MG cells",43%
same,"inhibition of stress fiber formation (phalloidin staining), pcDNA3.1 control vector transfected U87MG cells",90%
same,"reduction of hypoxia (1% O2)-induced VEGF promoter luciferase activity, U87MG cells",44%
same,"suppression of RhoA activity (rhotekin pulldown), control pcDNA3.1-transfected U87MG cells",88%
